The target of test [1] is T1, MUC-1 antigen expressed on MCF-7 human breast adenocarcinoma cells (human, UniProt P15941 24-1255).
T1 construct: whole, on cells; Scatchard analysis and immunocytochemistry used MCF-7 cells; also called MUC-1 mucin; MUC-1 membrane antigen
Briefly: competitive ELISA regression, second experiment. As to the method: (§1) Competitive ELISA analysis was performed in triplicate at each concentration. Incubations were carried out at 37EC for 1.5 hrs. Following each incubation, the plates were washed with PBS pH 7.4 containing 0.5% Tween 20 followed by PBS washes alone. Pro-Bind™ ELISA assay plates (Becton Dickinson Labware, Franklin Lakes, N.J.) were coated overnight at room temperature with the MCF-7 cell lysate (200 μg/well) in 15 mM sodium bicarbonate buffer pH 9.6. The ELISA plates were rinsed with PBS and blocked with PBS containing 3.0% dried non-fat milk for 1 hr. at room temperature. Ten percent bovine serum albumin (BSA) was used as a negative control. In a separate plate, soluble scFv containing 10% Tween 20 were prepared and stored on ice for 15 minutes. MCF-7 cell Tysate used as the competitor was diluted in 3% non-fat milk to provide the following concentrations 100 nM, 10 nM and 1 nM. The soluble scFv was transferred to the ELISA plate and incubated with the competitor. 100 μl of anti-E-tag diluted 1:250 in 3% non-fat milk solution was added to the wells and the plate incubated. The plate was developed with 2,2′-Amino-bis-3-ethylbenzthiazoline-6-sulfonic acid (ABTS) (Sigma-Aldrich, St. Louis, Mo.) containing 0.3% H₂O₂. The plate was read using a microplate reader at an absorbency of A₄₀₅ nM (Dynex, Chantilly, Va.). Data was generated from three separate trials and analyzed.
(In general: In an ELISA, binding on a coated surface is turned into a signal by an enzyme label.)

The target in test [2] is T1, MUC-1 antigen expressed on MCF-7 human …. Kind of test: competitive ELISA regression, third experiment (not statistically significant). On the procedure: as §1
Test [3] has the same target. Kind of test: competitive ELISA: scFv on plated MCF-7 lysate, soluble MCF-7 lysate (MUC-1) as competitor at 1 nM. As to the method:
as §1

The target is the same in test [4]. Kind of test: linear regression of competitive ELISA data. As to the method:
as §1

Test [5] has the same target. Kind of test: Scatchard analysis, 125I-12E scFv on MCF-7 cells with unlabeled competitor; 25 kD fraction, monovalent.
For test [6] the target is unchanged. Briefly: Scatchard analysis, 125I-12E scFv on MCF-7 cells with unlabeled competitor; 42 kD fraction, diabody (divalent).
Test [7] has the same target. Briefly: immunohistochemistry on a section of the same prostate cancer; biotinylated anti-mouse antibody and colour reagent. An excerpt: FIG. 4 illustrates staining of prostate cancer using three of the scFv described herein. The scFv is placed on the tissue on the slide and then washed off followed with a biotinylated anti mouse antibody for reaction with any bound scFv and then with a color reagent.

The target is the same in test [8]. Briefly: competitive ELISA regression, estimates of single experiments. As to the method:
as §1

Several values for one entry are separate records, joined by “and”; a condition that tells them apart may be missing. Equal entries are not always repeated.

T1 sequence (P15941 24-1255): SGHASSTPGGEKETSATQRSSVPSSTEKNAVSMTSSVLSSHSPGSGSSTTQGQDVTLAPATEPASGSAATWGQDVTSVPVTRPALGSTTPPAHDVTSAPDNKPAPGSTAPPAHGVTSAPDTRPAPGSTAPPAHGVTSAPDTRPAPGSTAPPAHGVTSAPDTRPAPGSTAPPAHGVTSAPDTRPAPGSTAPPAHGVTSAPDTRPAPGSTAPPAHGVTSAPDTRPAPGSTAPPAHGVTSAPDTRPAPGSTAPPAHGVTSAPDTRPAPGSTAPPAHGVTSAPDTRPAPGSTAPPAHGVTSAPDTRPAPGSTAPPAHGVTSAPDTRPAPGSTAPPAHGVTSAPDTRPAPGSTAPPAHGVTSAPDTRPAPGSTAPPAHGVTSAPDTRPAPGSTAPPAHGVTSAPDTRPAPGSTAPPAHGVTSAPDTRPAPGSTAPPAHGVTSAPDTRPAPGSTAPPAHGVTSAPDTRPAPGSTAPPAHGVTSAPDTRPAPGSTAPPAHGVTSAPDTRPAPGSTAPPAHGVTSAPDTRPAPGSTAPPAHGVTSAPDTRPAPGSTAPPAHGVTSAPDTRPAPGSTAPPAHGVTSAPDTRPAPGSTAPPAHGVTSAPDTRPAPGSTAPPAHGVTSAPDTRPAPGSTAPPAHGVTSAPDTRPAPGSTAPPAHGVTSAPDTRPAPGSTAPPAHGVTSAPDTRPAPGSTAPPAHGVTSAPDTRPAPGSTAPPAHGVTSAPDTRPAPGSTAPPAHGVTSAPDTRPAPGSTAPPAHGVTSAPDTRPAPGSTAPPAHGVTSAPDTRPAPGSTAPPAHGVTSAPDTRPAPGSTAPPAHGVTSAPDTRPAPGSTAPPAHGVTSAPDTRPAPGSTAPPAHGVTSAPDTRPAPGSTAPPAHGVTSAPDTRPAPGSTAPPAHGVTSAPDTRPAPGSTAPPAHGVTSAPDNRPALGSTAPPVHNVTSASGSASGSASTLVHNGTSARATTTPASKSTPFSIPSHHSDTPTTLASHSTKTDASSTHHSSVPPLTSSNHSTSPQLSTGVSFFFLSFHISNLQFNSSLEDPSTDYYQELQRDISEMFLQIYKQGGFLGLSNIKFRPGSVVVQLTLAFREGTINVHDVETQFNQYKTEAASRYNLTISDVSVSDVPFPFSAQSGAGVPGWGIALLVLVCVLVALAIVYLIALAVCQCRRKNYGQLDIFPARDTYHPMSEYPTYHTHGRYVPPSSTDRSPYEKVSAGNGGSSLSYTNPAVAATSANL

B1: anti-MUC-1 C4 scFv (scFv)
scFv: QVQLQESGPGLVQPSQSLSITCTVSGFSLTAYGVHWIRQSPGKGLEWLGVIWSGGGTDYNPAFISRLNINKDNSKSQVFFKVDSLQLDDRGIYYCVRRNGYFFDSWGQGTTVTVSSSGRFSGGGSGGGGSDIELTQSPASLLCLWGRGPPSHAGPTMVVSTSGYNFIYWSQQKPGQSPKLLIYLSSNLESGVPARVSGSGSRTYFTLNIHPVEEEDAATFYCRHTRELPCTFGGRTKLEIKRAAAGAPVPYPDPLEPRAA
For the molecule B1, the results for the Ka in test [1] and in test [2] were 2.3e+08 M⁻¹ and 1.01e+09 M⁻¹, respectively. Besides, the “percent inhibition of binding with 1 nM of competitor” value (“percent inhibition of binding” for short) in test [3] is 94%.

B2: anti-MUC-1 12E scFv (scFv)
scFv: QVKLQQSGTEVVKPGASVKLSCKASGYIFTSYDIDWVRQTPEQGLEWIGWIFPGEGSTEYNEKFKGRATLSVDKSSSTAYMELTRLTSEDSAVYFCARGDYYRRYFDLWGQGTTVTVSSRGGGSGGGGSGGGGSDIELTQSPAIMSASPGERVTMTCSASSSIRYIYWYQQKPGSSPRLLIYDTSNVAPGVPFRFSGSGSGTSYSLTINRMEAEDAATYYCQEWSGYPYTFGGGTKLELKRAAAGAPVPYPDPLEPRAA
notes: As printed it begins with a vector leader and ends with the E-tag; Mouse scFv from pCANTAB 5E, expressed in E. coli; also called clone 12E
Consider B2, for which, in test [4], the Ka was 1.7e+08 M⁻¹ and > 1e+08 M⁻¹. Further, the “percent inhibition of binding” value in test [3] turned out to be 50%.

B3: 125I-anti-MUC-1 12E scFv, 25 kD fraction (monovalent) (scFv)
scFv: QVKLQQSGTEVVKPGASVKLSCKASGYIFTSYDIDWVRQTPEQGLEWIGWIFPGEGSTEYNEKFKGRATLSVDKSSSTAYMELTRLTSEDSAVYFCARGDYYRRYFDLWGQGTTVTVSSRGGGSGGGGSGGGGSDIELTQSPAIMSASPGERVTMTCSASSSIRYIYWYQQKPGSSPRLLIYDTSNVAPGVPFRFSGSGSGTSYSLTINRMEAEDAATYYCQEWSGYPYTFGGGTKLELKRAAAGAPVPYPDPLEPRAA
modifications: 125I-labelled (Chloramine T method)
notes: HPLC (SEC-2000) fraction of iodinated 12E scFv, representative of the monovalent scFv; also called monomeric form of the 12E scFv
Molecule B3 had a Ka in test [5] of 8.6e+07 M⁻¹.

B4: 125I-anti-MUC-1 12E scFv, 42 kD fraction (divalent, considered a diabody) (scFv)
scFv: QVKLQQSGTEVVKPGASVKLSCKASGYIFTSYDIDWVRQTPEQGLEWIGWIFPGEGSTEYNEKFKGRATLSVDKSSSTAYMELTRLTSEDSAVYFCARGDYYRRYFDLWGQGTTVTVSSRGGGSGGGGSGGGGSDIELTQSPAIMSASPGERVTMTCSASSSIRYIYWYQQKPGSSPRLLIYDTSNVAPGVPFRFSGSGSGTSYSLTINRMEAEDAATYYCQEWSGYPYTFGGGTKLELKRAAAGAPVPYPDPLEPRAA
modifications: 125I-labelled (Chloramine T method)
notes: HPLC (SEC-2000) fraction of iodinated 12E scFv, considered to be a diabody (divalent); also called bivalent form of the 12E scFv
Regarding B4, the Ka in test [6] was about 1.7e+08 M⁻¹.

B5: B5 scFv (scFv)
scFv: MAQVKLQESGAELVRPGASVTLSCKASGYTFTDYEMHWVKQTPVHGLEWIGAIDPETGGTAYNQKFKGKATLTADKSSSTAYMELRSLTSEDSAVYYCTRDGYYAWFAYWGQGTTVTVSSGGGGLGGGGSGGGGSDIELTQSPAIMSASPGERVTMTCSASSSIRYIYWYQQKPGSSPRLLIYDTSNVAPGVPFRFSGSGSGTSYSLTINRMEAEDAATYYCQEWSGYPYTFGGGTKLELKRAAAGAPVPYPDPLEPRAA
notes: The sheet prints only the panel letter G
For the molecule B5, the binding result in test [7] is reported as “binds”.

B6: anti-MUC-1 3D scFv (scFv, V domains shown)
VH: QVKLQESGPEVVKPGASVKLSCKASGYIFTSYDIDWVRQTPEQGLEWIGWIFPGEGSTEYNEKFKGRATLSVDKSSSTAYMELTRLTSEDSAVYFCARGDYYRRYFDLWGQGTTVTVSS
notes: After the linker stands a short composite of N- and C-terminal pieces of a VL, with no light-chain loops; also called clone 3D
B6: the Ka was 2.2e+08 M⁻¹ and > 1e+08 M⁻¹ in test [4]; 1.2e+08 to 1.5e+08 M⁻¹ in test [8]. The “percent inhibition of binding” value in test [3] came out at 50%.

The record behind these values is patent US20040005647A1 (University of California, published 2004).
